T1: 5-enol-pyruvyl-shikimate-3-phosphate synthase (AtEPSPS) (Arabidopsis thaliana, UniProt P05466)
T1 construct: gene At2g45300; residues 77-520 (starts from Lys77, preceded by Ser-Asn-Ala)
T1 sequence (P05466 77-520): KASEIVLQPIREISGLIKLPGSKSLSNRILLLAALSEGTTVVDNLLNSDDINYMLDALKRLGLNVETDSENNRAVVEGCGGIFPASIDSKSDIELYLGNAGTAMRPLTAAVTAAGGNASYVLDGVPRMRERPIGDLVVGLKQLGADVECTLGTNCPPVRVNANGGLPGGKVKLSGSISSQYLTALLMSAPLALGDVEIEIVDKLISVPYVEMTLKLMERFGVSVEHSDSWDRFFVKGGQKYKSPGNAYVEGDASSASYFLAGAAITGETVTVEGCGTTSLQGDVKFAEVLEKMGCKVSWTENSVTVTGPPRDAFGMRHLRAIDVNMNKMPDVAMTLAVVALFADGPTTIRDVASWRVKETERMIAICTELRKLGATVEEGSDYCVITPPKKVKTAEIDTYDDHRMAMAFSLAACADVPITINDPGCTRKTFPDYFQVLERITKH

B1: 5-enol-pyruvyl-shikimate-3-phosphate synthase (AtEPSPS) (Arabidopsis thaliana) (protein)
chain: T1 sequence (P05466 77-520)
notes: residues 77-520 (starts from Lys77, preceded by Ser-Asn-Ala)

Tests used:
[1] = target: T1, 5-enol-pyruvyl-shikimate-3-phosphate synthase (AtEPSPS); experiment: malachite green phosphate-release assay, Lineweaver-Burk analysis (Ki vs PEP about […]; Ki vs S3P about […]; IC50 about […]); assay type: biochemical
[2] = substrate: O=C(O)C1=C[C@@H](OP(=O)(O)O)[C@@H](O)[C@H](O)C1; experiment: steady-state kinetics of the purified enzyme, KM(app), malachite green assay; assay type: biochemical, Arabidopsis thaliana
purified protein = substrate: C=C(OP(=O)(O)O)C(=O)O; experiment: purified protein; conditions: glyphosate is competitive with respect to PEP

Row | Molecule | Ki [1] | Km [2] | Km (purified protein)
1 | O=C(O)CNCP(=O)(O)O [glyphosate, N-[phosphonomethyl]glycine] | ~1000 nM |  | 
2 | B1 |  | 200 µM | 185 µM

Source: paper PMC8983318, “Deciphering the structure of Arabidopsis thaliana 5-enol-pyruvyl-shikimate-3-phosphate synthase: An essential step toward the discovery of novel inhibitors to supersede glyphosate” (Computational and Structural Biotechnology Journal, 2022)
